Reference: article PMC10764363

Target: EEEV virus-like particles (VLPs: C, E2, and E1) (Eastern equine encephalitis virus) (UniProt Q4QXJ7)
Experiment: ELISA

LA3-LA3-LA3-LA3-LA3-Fc [LA3(5)-Fc] (from UniProt P01130) (Fc fusion)
fold increase in binding avidity: 100 fold
